Series [1] deals with T1, NTwt (wildtype N-terminal (NT) fragment of Euprosthenops australis major ampullate spidroin 1) (Euprosthenops australis).
T1 chain: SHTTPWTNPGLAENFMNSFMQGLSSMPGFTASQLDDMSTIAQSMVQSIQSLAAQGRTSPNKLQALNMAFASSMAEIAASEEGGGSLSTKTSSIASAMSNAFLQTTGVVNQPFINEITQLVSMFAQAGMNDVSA
Nature of the series: tryptophan fluorescence ratio 339/351 nm vs pH, 5 µM protein in 20 mM HEPES/20 mM MES; homodimerization. The note with it: remark: other sources report otherwise.

Series [2] concerns the molecule itself. Nature of the series: tryptophan fluorescence ratio 339/351 nm vs pH (self-association / dimerization). As for the experimental part:
Fluorescence emission spectra for NT_{D40K/K65D} (SEQ ID NO: 2) and NTwt (SEQ ID NO: 11), respectively, were measured on a spectrofluorometer (Tecan Safire 2) using Costar® black polystyrene assay plates with 96 flat bottom wells. The proteins were diluted to a concentration of 5 μM in 20 mM HEPES/20 mM MES adjusted to pH 5.6-8.0 in steps of 0.4 pH units. After exciting the samples at 280 nm (5 nm bandwidth), emission spectra were recorded in 1 nm steps between 300-400 nm (10 nm bandwidth). The tryptophan fluorescence ratio was calculated from the intensities at 339 nm and 351 nm and plotted as a function of pH. […]
The pH-dependent monomer-dimer equilibrium of NT can be monitored through the fluorescence shift of a single tryptophan (Trp) residue that becomes more exposed in the dimer. FIG. 2 is a graph illustrating the monomer-dimer equilibrium measured with Trp fluorescence. Trp fluorescence spectra between 300 and 400 nm were measured in 20 mM HEPES/20 mM MES buffer and the ratio at 339/351 nm (wavelengths corresponding to monomer and dimer conformations, respectively) was calculated and plotted as a function of pH for NTwt (dotted line) and NT_{D40K/K65D} (filled line). The ratio of fluorescence at 339 and 351 nm as a function of pH gives a sigmoidal plot for NTwt with a pKa of dimerization at pH 6.5. […]

Results on two molecules are retold here after patent US20200207819A1 (SPIBER TECHNOLOGIES, published 2020).

B1: NTwt (wildtype N-terminal (NT) fragment of Euprosthenops australis major ampullate spidroin 1) (protein)
chain: SHTTPWTNPGLAENFMNSFMQGLSSMPGFTASQLDDMSTIAQSMVQSIQSLAAQGRTSPNKLQALNMAFASSMAEIAASEEGGGSLSTKTSSIASAMSNAFLQTTGVVNQPFINEITQLVSMFAQAGMNDVSA
Consider B1, for which, in series [1], the pKa of dimerization was 6.5 pH.

B2: NTD40K/K65D (charge-reversed double mutant of the NT fragment) (other)
chain: SHTTPWTNPGLAENFMNSFMQGLSSMPGFTASQLDKMSTIAQSMVQSIQSLAAQGRTSPNDLQALNMAFASSMAEIAASEEGGGSLSTKTSSIASAMSNAFLQTTGVVNQPFINEITQLVSMFAQAGMNDVSA
notes: Expressed in E. coli BL21 (DE3); also called charge-reversed NT mutant; NT mutant
Consider B2, for which the binding result in series [2] is reported as “no binding (tested: 5 µM protein, pH 5.6-8.0)”.
